The results in this text go back to patent publication US20220332804A1 (CSL INNOVATION, published 2022).

What all share (assay): SPR, antibody captured, C2 as analyte;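 also: biacore SPR at 37 °C, anti-C2 mAbs captured via goat anti-human IgG on CM5 chips, double-referenced sensorgrams fit to a 1:1 kinetic or steady-state model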
One experiment has as its target T1, human C2 N424A (human, UniProt P06681 21-752).
T1 sequence: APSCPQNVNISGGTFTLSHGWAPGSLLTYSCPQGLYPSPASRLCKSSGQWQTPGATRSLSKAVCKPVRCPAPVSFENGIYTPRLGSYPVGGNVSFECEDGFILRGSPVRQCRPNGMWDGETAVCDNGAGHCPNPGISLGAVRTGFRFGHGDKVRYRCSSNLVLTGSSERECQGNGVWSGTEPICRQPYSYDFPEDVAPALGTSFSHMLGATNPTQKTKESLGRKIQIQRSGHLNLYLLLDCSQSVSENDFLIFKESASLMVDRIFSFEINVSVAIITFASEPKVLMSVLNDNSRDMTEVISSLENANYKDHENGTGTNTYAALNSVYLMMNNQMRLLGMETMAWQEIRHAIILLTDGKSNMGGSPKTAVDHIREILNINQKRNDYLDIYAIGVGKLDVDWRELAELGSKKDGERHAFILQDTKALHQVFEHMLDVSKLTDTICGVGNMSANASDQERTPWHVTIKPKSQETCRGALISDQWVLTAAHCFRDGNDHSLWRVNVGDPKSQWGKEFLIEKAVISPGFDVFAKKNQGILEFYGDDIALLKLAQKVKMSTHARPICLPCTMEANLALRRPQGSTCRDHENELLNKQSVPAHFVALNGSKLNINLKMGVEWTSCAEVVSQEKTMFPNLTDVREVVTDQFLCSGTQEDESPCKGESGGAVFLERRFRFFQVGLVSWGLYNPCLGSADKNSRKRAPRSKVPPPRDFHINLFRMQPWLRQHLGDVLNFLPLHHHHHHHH

In another experiment the target is T2, human C2 P650A (human, UniProt P06681 21-752).
T2 sequence: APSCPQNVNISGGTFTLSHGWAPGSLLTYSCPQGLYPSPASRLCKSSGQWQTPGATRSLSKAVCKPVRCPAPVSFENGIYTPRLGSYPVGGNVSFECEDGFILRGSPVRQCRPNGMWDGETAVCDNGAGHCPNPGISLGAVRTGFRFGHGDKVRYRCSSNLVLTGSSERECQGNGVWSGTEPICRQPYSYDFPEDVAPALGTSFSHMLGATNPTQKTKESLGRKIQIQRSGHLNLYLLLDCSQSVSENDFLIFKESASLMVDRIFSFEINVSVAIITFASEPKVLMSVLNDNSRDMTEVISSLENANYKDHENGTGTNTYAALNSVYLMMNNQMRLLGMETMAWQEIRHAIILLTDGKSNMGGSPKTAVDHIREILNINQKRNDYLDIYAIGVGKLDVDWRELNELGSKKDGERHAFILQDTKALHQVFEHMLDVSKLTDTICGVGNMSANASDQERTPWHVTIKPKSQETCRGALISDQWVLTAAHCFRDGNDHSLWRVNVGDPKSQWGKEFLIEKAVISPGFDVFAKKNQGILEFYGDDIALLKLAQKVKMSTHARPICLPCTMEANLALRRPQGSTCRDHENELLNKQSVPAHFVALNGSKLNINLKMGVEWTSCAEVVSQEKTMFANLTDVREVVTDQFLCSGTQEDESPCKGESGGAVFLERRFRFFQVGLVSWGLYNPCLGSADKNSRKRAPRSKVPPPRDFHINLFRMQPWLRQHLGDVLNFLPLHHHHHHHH

A further experiment deals with T3, human C2 E490A (human, UniProt P06681 21-752).
T3 sequence: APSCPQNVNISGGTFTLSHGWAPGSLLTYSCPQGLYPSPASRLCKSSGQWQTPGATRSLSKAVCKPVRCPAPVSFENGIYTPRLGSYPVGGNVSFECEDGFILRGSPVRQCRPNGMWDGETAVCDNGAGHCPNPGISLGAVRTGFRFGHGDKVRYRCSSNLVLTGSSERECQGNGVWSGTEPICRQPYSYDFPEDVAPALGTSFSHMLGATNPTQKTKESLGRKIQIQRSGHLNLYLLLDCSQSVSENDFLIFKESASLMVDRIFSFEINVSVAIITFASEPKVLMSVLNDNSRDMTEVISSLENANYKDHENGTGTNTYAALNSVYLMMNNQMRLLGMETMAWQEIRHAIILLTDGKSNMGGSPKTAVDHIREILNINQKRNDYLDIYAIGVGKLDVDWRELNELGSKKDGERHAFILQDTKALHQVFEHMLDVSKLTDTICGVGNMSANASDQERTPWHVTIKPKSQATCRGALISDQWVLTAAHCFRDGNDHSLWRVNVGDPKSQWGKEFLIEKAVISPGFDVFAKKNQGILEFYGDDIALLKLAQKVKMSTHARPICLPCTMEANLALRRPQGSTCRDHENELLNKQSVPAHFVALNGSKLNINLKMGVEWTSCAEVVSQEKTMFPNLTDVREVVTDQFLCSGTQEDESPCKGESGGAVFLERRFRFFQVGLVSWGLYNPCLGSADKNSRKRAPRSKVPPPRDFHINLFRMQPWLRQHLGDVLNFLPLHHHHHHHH

A further experiment addresses T4, human C2 T491A (human, UniProt P06681 21-752).
T4 sequence: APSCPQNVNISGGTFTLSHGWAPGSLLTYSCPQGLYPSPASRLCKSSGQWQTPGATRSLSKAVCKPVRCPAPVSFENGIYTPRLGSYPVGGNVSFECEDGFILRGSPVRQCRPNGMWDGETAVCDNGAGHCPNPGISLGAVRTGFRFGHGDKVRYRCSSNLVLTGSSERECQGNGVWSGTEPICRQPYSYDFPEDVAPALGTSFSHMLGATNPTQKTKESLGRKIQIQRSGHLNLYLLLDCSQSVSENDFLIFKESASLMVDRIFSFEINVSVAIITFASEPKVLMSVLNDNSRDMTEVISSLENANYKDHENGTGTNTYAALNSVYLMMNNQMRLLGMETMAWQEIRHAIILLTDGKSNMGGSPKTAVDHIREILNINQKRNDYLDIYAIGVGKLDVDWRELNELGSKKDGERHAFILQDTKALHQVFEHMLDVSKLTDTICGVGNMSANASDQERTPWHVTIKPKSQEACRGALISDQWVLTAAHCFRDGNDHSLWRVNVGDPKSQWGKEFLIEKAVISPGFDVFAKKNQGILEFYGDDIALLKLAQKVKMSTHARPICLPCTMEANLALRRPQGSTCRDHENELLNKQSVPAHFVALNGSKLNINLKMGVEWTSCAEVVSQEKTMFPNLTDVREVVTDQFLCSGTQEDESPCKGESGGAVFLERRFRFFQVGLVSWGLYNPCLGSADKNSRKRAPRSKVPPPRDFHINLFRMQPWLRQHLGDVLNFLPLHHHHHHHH

B1: RF16-226 (antibody, human IgG4 S228P, lambda)
heavy: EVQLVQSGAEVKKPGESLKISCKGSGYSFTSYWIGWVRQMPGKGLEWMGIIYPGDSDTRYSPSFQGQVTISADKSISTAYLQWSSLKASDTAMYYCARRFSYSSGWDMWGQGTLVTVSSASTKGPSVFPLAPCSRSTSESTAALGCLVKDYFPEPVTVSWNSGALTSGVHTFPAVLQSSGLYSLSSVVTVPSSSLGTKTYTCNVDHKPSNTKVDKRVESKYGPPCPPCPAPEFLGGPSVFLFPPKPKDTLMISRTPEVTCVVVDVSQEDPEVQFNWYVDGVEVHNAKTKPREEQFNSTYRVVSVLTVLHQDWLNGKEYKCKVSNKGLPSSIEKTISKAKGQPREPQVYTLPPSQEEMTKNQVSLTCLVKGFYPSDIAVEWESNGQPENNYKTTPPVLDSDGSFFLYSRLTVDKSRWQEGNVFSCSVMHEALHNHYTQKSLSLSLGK
light: SYELTQPPSVSVSPGQTARITCSGDALTSKYVAWYQQKSGLAPLLVIYEDTRRPSGIPAKFSGSSSGSVATLTISGAHGDDEADYYCYSTDASGHQRVFGGGTKLTVLSQPKAAPSVTLFPPSSEELQANKATLVCLISDFYPGAVTVAWKADGSPVKAGVETTKPSKQSNNKYAASSYLSLTPEQWKSHRSYSCQVTHEGSTVEKTVAPTECS
notes: pH-dependent anti-C2 antibody from a phage display library; also called WT
With B1, the Kd was determined as 3.2 nM in the experiment with human C2 N424A, 18.3 nM in the experiment with human C2 P650A, 15.6 nM with human C2 E490A and 15.5 nM with human C2 T491A.
